Where two headings read alike, the source gives them in different places.
Experiments:
[1] = Photophysical properties and fluorescence quantum yields of DFHBI and RNA-DFHBI complexes; format: physicochemical; conditions: this work
Experimental: The absorbance was measured at 448 nm and the fluorescence emission spectra was measured with 448 nm excitation for three different concentrations of the Acridine Yellow standard. The absolute quantum yield of Acridine Yellow was taken to be 0.47 as reported by Olmsted, Journal of Physical Chemistry 1979, 83, 2581-2584. The refractive index (η) was taken as 1.36 for ethanol and 1.333 for water (E. Hecht, Optics (4th edition), 2001). UV absorbance and fluorescence spectra were recorded on a Shimadzu 2501 Spectrophotometer (Shimadzu) or a Quantamaster Master 4 L-format scanning spectrofluorometer (Photon Technologies International) equipped with an LPS-220B 75-W xenon lamp and power supply, A-1010B lamp housing with integrated igniter, switchable 814 photon counting/analog photomultiplier detection unit, and MD5020 motor driver.
Quantum yields for DFHBI or RNA-DFHBI complex were determined by measuring the apparent quantum yields (Φsample.app) as a function of increasing total RNA (Ctotal RNA) at a fixed concentration of total DFHBI (CDFHBI). […] The RNA was renatured in buffer at 70° C. for 3 min and cooled to ambient temperature for 5 min prior to addition to the reaction solution. The DFHBI concentration was fixed at 10 or 20 μM in different replicates. The apparent quantum yield is described using the following equation: […]
Then, the apparent quantum yield is related to the dissociation constant Kd and concentration of DFHBI by the following equation: […]
Thus, the dissociation constants Kd and the quantum yield (Φsample) of RNA-DFHBI complexes were determined by least squares fitting to the above equation in Graphpad Prism software.

[2] = literature value (Nawrocki et al.); cited from earlier work
[3] = target: T1, protein lysine MTase SET7/9 (Homo sapiens, UniProt Q8WTS6); experiment: Protein MTase SET7/9 inhibition assay read out with Aeh1-4 biosensor; format: biochemical
T1 construct: purchased New England Biolabs Inc (Ipswich, Mass.)
T1 sequence (Q8WTS6 1-366): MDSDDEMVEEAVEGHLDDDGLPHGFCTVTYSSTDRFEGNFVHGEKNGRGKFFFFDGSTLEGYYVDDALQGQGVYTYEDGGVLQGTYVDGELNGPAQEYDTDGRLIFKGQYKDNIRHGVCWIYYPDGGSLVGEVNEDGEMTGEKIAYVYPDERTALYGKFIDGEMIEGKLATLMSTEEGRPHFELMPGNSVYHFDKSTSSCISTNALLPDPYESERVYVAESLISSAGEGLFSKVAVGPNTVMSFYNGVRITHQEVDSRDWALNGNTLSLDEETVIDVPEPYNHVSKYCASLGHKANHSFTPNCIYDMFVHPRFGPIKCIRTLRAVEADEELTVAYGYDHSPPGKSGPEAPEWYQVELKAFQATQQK
Experimental: To initiate the enzyme reaction, 5 μL of H3 peptide substrate (N′-[…]-LAGGKKC-C′) (SEQ ID NO:132) was added to 5 μL of 2×enzyme reaction solution containing SET7/9, SAM, and NEB HMT buffer. Generally, final concentrations are 50 μM H3 peptide, 0.1 U/μL SET7/9, 25 μM SAM, and lx NEB HMT buffer (50 mM Tris, pH 9.0, 5 mM MgCl2, and 4 mM DTT). The reaction solution was incubated at 37° C. for 2 hours to allow the enzyme reaction to proceed.
For the kinetics assay, the reaction conditions are the same as described above except 0.05 U/μL SET7/9 was used, and the enzyme reaction was heat inactivated at different time points. For the inhibition assay, the reaction conditions are the same as described in kinetics assay except varied concentrations of sinefungin was added to the enzyme reaction solution, the reaction solution was incubated at 37° C. for 6 min (see FIG. 16), then heat inactivated by incubation at 65° C. for 15 min. For the inhibition assay shown in FIG. 17, the reaction conditions are the same as described above except 40 μM H3 peptide, 0.1 U/μL SET7/9, 40 μM SAM were used instead.
To initiate the fluorescent biosensor reaction, 10 μL of the enzyme reaction was added to 90 μL of biosensor reaction solution containing renatured RNA, DFHBI, and buffer. […] In vitro fluorescence assays were conducted as described above.

[4] = In vitro fluorescence assays of SAH biosensors (turn-on, ligand selectivity); format: biochemical; conditions: for fluorescence response to SAH at low magnesium: 3 mM magnesium; for fluorescence in the presence of ATP: 10 mM ATP; for fluorescence turn-on: 37° C., 10 mM Mg^2+
Experimental: Other conditions, including temperature, concentrations of MgCl2, DFHBI, ligand or RNA, were varied in different experiments and are indicated in the figures. The RNA was renatured in buffer at 70° C. for 3 min and cooled to ambient temperature for 5 min prior to addition to the reaction solution. DFHBI was added to a solution containing buffer and ligand, and then RNA was added at the end before fluorescence measurement. Binding reactions were performed in 100 μL volumes and were incubated at the indicated temperature in a Corning Costar 3915 96-well black plate until equilibrium was reached, which in some cases takes 30 to 60 minutes. The fluorescence emission was measured using a Molecular Devices SpectraMax Paradigm Multi-Mode detection platform plate reader (Sunnyvale, Calif.) with the following instrument parameters: 448 nm excitation, 506 nm emission.

[5] = Binding affinity analysis of SAH biosensors
Experimental: The SAH concentration (cSAH) was varied, and the fluorescence of the sample with DFHBI but no RNA was subtracted as background to determine relative fluorescence units. The ratio between the fraction of biosensor that is bound by SAH and the total SAH biosensor concentration is given as:
The dissociation constants Kd were determined by least squares fitting to the following equation in Graphpad Prism software: […]

[6] = system: E. coli BL21* wild-type and ΔMTAN cells; experiment: Live cell detection of SAH accumulation, wild-type versus MTAN knockout, flow cytometry; format: cell-based; conditions: E. coli BL21* MTAN knockout strain 2
Experimental: A Targetron® Gene Knockout System (Sigma-Aldrich) was used to knock out the MTAN gene from E. coli BL21*, following manufacturer protocols.
Preparation of cell samples for flow cytometry was carried out by inoculating 2 mL of auto-induction media/Carb (F. Studier, Protein Expression and Purification 2005, 41, 207-234) with E. coli BL21* cells from colonies grown on an LB/Carb culture plate, containing pET31b plasmids encoding RNA aptamers. […] Cells were then grown aerobically overnight to saturation (0D600 varied from 5 to 10) and diluted to OD600˜0.01-0.05 in M9 minimal media (pH ˜6.0) with 100 μM DFHBI-1T. Cellular fluorescence was measured for 30,000 cells using a Life Technologies Attune N×T Acoustic Focusing Cytometer.

[7] = system: E. coli BL21* cells; experiment: In vivo fluorescence of RNA aptamers by flow cytometry; format: cell-based; conditions: 100 μM DFHBI
Experimental: To compare the fluorescence of Spinach2 and cpSpinach2 in live cells, pET31b plasmids encoding the RNA aptamers in a tRNA scaffold were transformed into E. coli BL21* cells. Following IPTG induction of transcription, cells were incubated with DFHBI and fluorescence was quantitated by flow cytometry. The mean cellular fluorescence was measured as a function of increasing DFHBI concentration in the media, in order to determine the optimal conditions for aptamer fluorescence. Unexpectedly, full saturation of fluorescence was not observed, even when E. coli cells were incubated in media containing up to 800 μM DFHBI (FIG. 5). However, the non-specific fluorescence signal increased when DFHBI concentration exceeded 100 μM. Thus, to balance higher fluorescence activation and lower non-specific background, a concentration of 100 μM was adopted for further experiments. Under these conditions, cellular fluorescence activation for Spinach2 and cpSpinach2 was on average 34 and 22-fold over background, respectively (FIG. 6). Thus, cpSpinach2 is a functional alternative to Spinach2. Although it currently performs slightly poorer in terms of fluorescence activation in live cells, improvements are likely possible through directed mutagenesis for higher thermal stability, improved folding efficiency and less Mg^2+ dependency. […]

[8] = target: T2, SET7/9 (Homo sapiens, UniProt Q8WTS6); experiment: High-throughput screening (HTS) assay of SET7/9 activity and inhibition, Z′ score; format: biochemical; conditions: 384-well plate, 16 replicates, 300 μM sinefungin
T2 construct: purchased New England Biolabs Inc (Ipswich, Mass.)
T2 sequence (Q8WTS6 1-366): T1 sequence (Q8WTS6 1-366)
Experimental: For HTS experiments, samples were dispensed into a Grenier 781077 384-well flat bottom black plate using an Eppendorf Repeater […] pipetter to dispense reaction components. Z' scores were calculated from 16 well replicates in the 384-well plate. For the HTS SET7/9 activity assay, 3 μL of H3 peptide or water was added to 9 μL of reaction solution containing SET7/9 MTase, SAM, and NEB HMT Reaction Buffer in each well. Final concentrations are: 0.25 U/10 μL SET7/9, 25 μM SAM, 50 μM H3 peptide and 1×NEB HMT Reaction Buffer (50 mM Tris, pH 9.0, 5 mM MgCl2, and 4 mM DTT). After 30 min incubation at 37° C., to initiate the fluorescent biosensor reaction, 18 μL of biosensor reaction solution containing renatured RNA, DFHBI, and buffer was added to each well. […] In vitro fluorescence assays were conducted as described above. For the HTS SET7/9 inhibition assay, 4.5 μL of sinefungin or water was added to 8 μL of reaction solution containing SET7/9 MTase, and NEB HMT Reaction Buffer in each well. After 15 minutes incubation at 37° C., methylation reaction was initiated by adding 2.5 μL solution containing both SAM and H3 peptide. Final concentrations are: 0.25 U/10 μL SET7/9, 25 μM SAM, 50 μM H3 peptide, 300 μM sinefungin and 1×NEB HMT Reaction Buffer (50 mM Tris, pH 9.0, 5 mM MgCl2, and 4 mM DTT). After 30 min incubation at 37° C., to initiate the fluorescent biosensor reaction, 15 μL of biosensor reaction solution containing renatured RNA, DFHBI, and buffer was added to each well. […] In vitro fluorescence assays were conducted as described above.

[9] = 3 mM magnesium (FIG. 22), read-out: in vitro measured binding affinity for SAH

CC1=N/C(=C\c2cc(F)c(O)c(F)c2)C(=O)N1C [DFHBI, (Z)-4-(3,5-difluoro-4-hydroxybenzylidene)-1,2-dimethyl-1H-imidazol-5(4H)-one]
Emission maximum [1]: 502 ± 1 nm
Excitation Maximum [1]: 428 ± 1 nm
Extinction coefficient [1]: 30018 M^−1- cm^−1
Fluorescence quantum yield ([1]; 30° C., 10 mM MgCl2): 0.00072 ± 0.00013
Emission maximum [2]: 489 nm
Excitation Maximum [2]: 423 nm
Extinction coefficient [2]: 30100 M^−1- cm^−1
Fluorescence quantum yield [2]: 0.0007

Nc1ncnc2c1ncn2[C@@H]1O[C@H](C[C@@H](N)CC[C@H](N)C(=O)O)[C@@H](O)[C@H]1O [Sinefungin]
IC50 ([3]; initial SAM concentration 40 μM): 42000 ± 16000 nM
IC50 ([3]; initial SAM concentration of 25 μM): 26000 ± 5000 nM

B1: Mpe1-5: SAH biosensor, SEQ ID NO: 39 (nucleic acid)
chain: ACTTTCGAGGAGCGTTGCAACTCCCTTGTTGAGTAGAGTGTGAGCTCCGTAACTAGTTACATCGCAAGATGTAACTGAATGAAATGGTGAAGGACGGGTCCAGGGAGCCAGGCTCGAAAGTCATCCCCCGATGCAACGGCGCTCACCCGCA
fluorescence response to SAM ([4]; 10 μM of SAM): slight response to SAM
fluorescence response to SAH at low magnesium [4]: high fluorescence response to SAH
fluorescence in the presence of ATP [4]: lower fluorescence
fluorescence turn-on [4]: ~4 fold
Kd [5, 9]: 19 nM
Kd ([5]; 10 mM Mg^2+, 37° C., read-out: Kd for SAH): 75 ± 7 nM
fold change in fluorescence between wild-type and MTAN knockout strain 2 [6]: 2.0 ×

B2: Spinach2: fluorophore-binding RNA aptamer, SEQ ID NO: 92 (nucleic acid)
chain: GATGTAACTGAATGAAATGGTGAAGGACGGGTCCAGTAGGCTGCTTCGGCAGCCTACTTGTTGAGTAGAGTGTGAGCTCCGTAACTAGTTACATC
modifications: expressed or natural sequence
cellular fluorescence activation over background [7]: 34 fold
fluorescence in the presence of ATP [4]: showed the same effect

B3: Nmo1-4: SAH biosensor, SEQ ID NO: 65 (Table 2 prints 64) (nucleic acid)
chain: CTCGCCGAGGAGCGCTGCAACAGGTTGTTGAGTAGAGTGTGAGCTCCGTAACTAGTTACATCGCAAGATGTAACTGAATGAAATGGTGAAGGACGGGTCCACCTGCCAGGCTCGGCGATTATCGGGACCTTTAAACCAACGGCGCTCGGTTCAG
fluorescence response to SAH at low magnesium [4]: high fluorescence response to SAH
fluorescence turn-on [4]: ~9 fold
Kd [5, 9]: 750 nM
Z′ score, inhibitor screen [8]: 0.75
fold change in fluorescence between wild-type and MTAN knockout strain 2 [6]: 4.8 ×
